Biological target: T1, M. tuberculosis elongation factor Ts (EF-Ts) with an N-terminal 6xHis-tag and linker (M. tuberculosis, UniProt P9WNM1 1-271)
T1 sequence: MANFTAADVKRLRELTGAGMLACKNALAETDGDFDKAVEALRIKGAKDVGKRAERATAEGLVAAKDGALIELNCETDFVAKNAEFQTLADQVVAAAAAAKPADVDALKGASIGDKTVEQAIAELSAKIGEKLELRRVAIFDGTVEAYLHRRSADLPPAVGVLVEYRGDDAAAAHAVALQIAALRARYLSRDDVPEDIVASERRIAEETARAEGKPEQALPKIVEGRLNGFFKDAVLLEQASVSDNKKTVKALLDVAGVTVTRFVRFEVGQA
Assay: affinity purification with mass spectrometry
Details: partners not purified

B1: M. tuberculosis elongation factor Tu (EF-Tu) (natural protein)
chain: not shown
  stoichiometry N: 1

Reference: publication PMC5001721, “Reconstitution of Protein Translation of Mycobacterium Reveals Functional Conservation and Divergence with the Gram-Negative Bacterium Escherichia coli” (PLoS ONE, 2016)
